Article PMC4353338, “Molecular annotation of ketol-acid reductoisomerases from Streptomyces reveals a novel amino acid biosynthesis interlock mediated by enzyme promiscuity” (Microbial Biotechnology, 2014)

Key:
Test in all cases: purified protein
Details in all cases: 0.1 M Tris-HCl pH 8, 10 mM MgCl2, 0.22 mM NADP(H), 25 C
purified protein [1] = substrate: CC(C)(O)C(=O)C(=O)O; assay type: biochemical, Streptomyces pristinaespiralis
purified protein [2] = substrate: CC(=O)[C@](C)(O)C(=O)O; assay type: biochemical, Streptomyces pristinaespiralis
purified protein [3] = substrate: CC[C@](O)(C(C)=O)C(=O)O; assay type: biochemical, Streptomyces griseus
purified protein [4] = substrate: CC(=O)[C@](C)(O)C(=O)O; assay type: biochemical, Streptomyces griseus
purified protein [5] = substrate: CC(C)(O)C(=O)C(=O)O; assay type: biochemical, Corynebacterium glutamicum
purified protein [6] = substrate: CC(C)(O)C(=O)C(=O)O; assay type: biochemical, Streptomyces viridifaciens
purified protein [7] = substrate: CC(=O)[C@](C)(O)C(=O)O; assay type: biochemical, Streptomyces viridifaciens
purified protein [8] = substrate: CC(C)(O)C(=O)C(=O)O; assay type: biochemical, Escherichia coli
purified protein [9] = substrate: CC(C)(O)C(=O)C(=O)O; assay type: biochemical, Streptomyces coelicolor
purified protein [10] = substrate: CC(=O)[C@](C)(O)C(=O)O; assay type: biochemical, Streptomyces coelicolor
purified protein [11] = substrate: CC(C)(O)C(=O)C(=O)O; assay type: biochemical, Streptomyces lividans
purified protein [12] = substrate: CC(=O)[C@](C)(O)C(=O)O; assay type: biochemical, Streptomyces lividans
purified protein [13] = substrate: CC(C)(O)C(=O)C(=O)O; assay type: biochemical, Streptomyces ambofaciens
purified protein [14] = substrate: CC(=O)[C@](C)(O)C(=O)O; assay type: biochemical, Streptomyces ambofaciens
purified protein [15] = substrate: CC[C@](O)(C(C)=O)C(=O)O; assay type: biochemical, Streptomyces avermitilis
purified protein [16] = substrate: CC(=O)[C@](C)(O)C(=O)O; assay type: biochemical, Streptomyces avermitilis

B1: Spr (Streptomyces pristinaespiralis ATCC 25486) (protein)
chain: MAELFYDDDADLSIIQNRKVAVIGYGSQGHAHALSLRDSGVDVRVGLHEGSKSKAKAEEQGLRVVTPAEAAAEADVIMILIPDPIQAQVYEESVKGNLKDGDALFFAHGFNVRFGFIKAPAGVDVALVAPKGPGHLVRRQYEEGRGVPAIAAVEQDATGNAFALALSYAKAIGGTRAGVIKTTFTEETETDLFGEQAVLCGGASALVKAGFETLTEAGYQPEIAYFECLHELKLIVDLMYEGGLEKMRWSVSETAEWGDYITGPRIITDQTKAEMKKVLAEIQDGTFAKNWMDEYHGGLKKYDEYKTQDSEHLLETTGKELRKLMSWVDNDEA
notes: pET28a, expressed in E. coli BL21 Star (DE3), Ni-NTA purified (His-tagged)
B1 was tested, and the Km (purified protein [1]) was 8600 ± 900 µM, the kcat (purified protein [1]) was 5.2 ± 0.6 s⁻¹ and the Km (purified protein [2]) was 9000 ± 700 µM. For the same protein, the kcat (purified protein [2]) was 3.6 ± 0.3 s⁻¹.

B2: Sgr (Streptomyces griseus subsp. griseus NBRC 13350) (protein)
chain: MAELFYDDDADLSIIQGRKVAVLGYGSQGHAHALSLRDSGVDVRVGLHEGSKSKAKAEEQGLRVVTPSEAAAEADVIMILVPDPIQAQVYEESVKDNLKDGDALFFGHGLNIRFGFIKPPAGVDVCMVAPKGPGHLVRRQYEEGRGVPCIVAVEQDASGKGLELALSYAKGIGGTRAGVIKTTFTEETETDLFGEQAVLCGGTAALVKAGFETLTEAGYQPEIAYFECLHELKLIVDLMYEGGLEKMRWSISETAEWGDYVTGPRIITDATKAEMKKVLAEIQDGTFAKNWMAEYHNGLPKYNEYKKADSDHLLETTGRELRKLMSWVNDEEA
notes: as for B1
B2 showed a Km (purified protein [3]) of 2500 ± 300 µM, a kcat (purified protein [3]) of 0.44 ± 0.03 s⁻¹ and a Km (purified protein [4]) of 1200 ± 700 µM. It also gave a kcat (purified protein [4]) of 0.42 ± 0.04 s⁻¹.

B3: Cgl (Corynebacterium glutamicum ATCC 13032) (protein)
chain: MAIELLYDADADLSLIQGRKVAIVGYGSQGHAHSQNLRDSGVEVVIGLREGSKSAEKAKEAGFEVKTTAEAAAWADVIMLLAPDTSQAEIFTNDIEPNLNAGDALLFGHGLNIHFDLIKPADDIIVGMVAPKGPGHLVRRQFVDGKGVPCLIAVDQDPTGTAQALTLSYAAAIGGARAGVIPTTFEAETVTDLFGEQAVLCGGTEELVKVGFEVLTEAGYEPEMAYFEVLHELKLIVDLMFEGGISNMNYSVSDTAEFGGYLSGPRVIDADTKSRMKDILTDIQDGTFTKRLIANVENGNTELEGLRASYNNHPIEETGAKLRDLMSWVKVDARAETA
notes: as for B1
B3 showed a Km (purified protein [5]) of 2300 ± 250 µM and a kcat (purified protein [5]) of 0.9 ± 0.08 s⁻¹.

B4: Svi2 (Streptomyces viridifaciens) (protein)
chain: MAELFYDADADLSIIQGRKVAVIGYGSQGHAHALSLRDSGVDVRVGLHEGSKSKAKAEEQGLRVVTPAEAAAEADVIMILVPDPIQAQVYEESVKDNLKDGDALFFGHGFNIRFGFIKPPAGVDVCMVAPKGPGHLVRRQYEEGRGVPCIAAVEQDASGNAFALALSYAKGIGGTRAGVIKTTFTEETETDLFGEQAVLCGGTSALVKAGFETLVEAGYQPEIAYFECLHELKLIVDLMYEGGLEKMRWSVSETAEWGDYVTGPRIITDATKAEMKKVLAEIQDGTFAKNWMDEYHGGLKKYDDYKEQDSEHLLETTGKQLRKLMSWVNEETM
notes: commercially synthesized gene; pET28a, expressed in E. coli BL21 Star (DE3), Ni-NTA purified (His-tagged)
For B4, the Km (purified protein [6]) was 5000 ± 4800 µM, the kcat (purified protein [6]) was 2.5 ± 0.3 s⁻¹ and the Km (purified protein [7]) was 1800 ± 900 µM. It also gave a kcat (purified protein [7]) of 2 ± 0.07 s⁻¹.

B5: Eco (Escherichia coli K-12) (protein)
chain: ANYFNTLNLRQQLAQLGKCRFMGRDEFADGASYLQGKKVVIVGCGAQGLNQGLNMRDSGLDISYALRKEAIAEKRASWRKATENGFKVGTYEELIPQADLVINLTPDKQHSDVVRTVQPLMKDGAALGYSHGFNIVEVGEQIRKDITVVMVAPKCPGTEVREEYKRGFGVPTLIAVHPENDPKGEGMAIAKAWAAATGGHRAGVLESSFVAEVKSDLMGEQTILCGMLQAGSLLCFDKLVEEGTDPAYAEKLIQFGWETITEALKQGGITLMMDRLSNPAKLRAYALSEQLKEIMAPLFQKHMDDIISGEFSSGMMADWANDDKKLLTWREETGKTAFETAPQYEGKIGEQEYFDKGVLMIAMVKAGVELAFETMVDSGIIEESAYYESLHELPLIANTIARKRLYEMNVVISDTAEYGNYLFSYACVPLLKPFMAELQPGDLGKAIPEGAVDNGQLRDVNEAIRSHAIEQVGKKLRGYMTDMKRIAVAG
notes: as for B1
Protein B5 has a Km (purified protein [8]) of 260 ± 30 µM and a kcat (purified protein [8]) of 3.1 ± 0.25 s⁻¹.

B6: Sco1 (Streptomyces coelicolor A3(2)) (protein)
chain: MAELFYDADADLSIIQGRKVAVIGYGSQGHAHALSLRDSGVDVRVGLHEGSKSKAKAEEQGLRVVPVAEAAAEADVIMILVPDPIQAEVYEKDIKDNLKDGDALFFGHGLNIRYGFIKPPAGVDVCMVAPKGPGHLVRRQYEEGRGVPCIAAVEQDATGNAFALALSYAKGIGGTRAGVIKTTFTEETETDLFGEQAVLCGGTAALVKAGFETLTEAGYQPEIAYFECLHELKLIVDLMYEGGLEKMRWSISETAEWGDYVTGPRIITDATKAEMKKVLAEIQDGTFAKNWMDEYHGGLKKYNEYKKQDSEHLLETTGKELRKLMSWVDEEA
notes: as for B1
B6 gave a Km (purified protein [9]) of 3000 ± 200 µM, a kcat (purified protein [9]) of 2.2 ± 0.15 s⁻¹ and a Km (purified protein [10]) of 1600 ± 200 µM. For the same protein, the kcat (purified protein [10]) was 1.1 ± 0.2 s⁻¹.

B7: Sli1 (Streptomyces lividans TK24) (protein)
chain: MAELFYDADADLSIIQGRKVAVIGYGSQGHAHALSLRDSGVDVRVGLHEGSKSKAKAEEQGLRVVPVAEAAAEADVIMILVPDPIQAEVYEKDIKDNLKDGDALFFGHGLNIRYGFIKPPAGVDVCMVAPKGPGHLVRRQYEEGRGVPCIAAVEQDATGNAFALALSYAKGIGGTRAGVIKTTFTEETETDLFGEQAVLCGGTAALVKAGFETLTEAGYQPEIAYFECLHELKLIVDLMYEGGLEKMRWSISETAEWGDYVTGPRIITDATKAEMKKVLAEIQDGTFAKNWMDEYHGGLKKYNEYKKQDSEHLLETTGKELRKLMSWVDEEA
notes: as for B1
For B7, the Km (purified protein [11]) was 4000 ± 500 µM, the kcat (purified protein [11]) was 2.8 ± 0.3 s⁻¹ and the Km (purified protein [12]) was 1200 ± 70 µM. For the same protein, the kcat (purified protein [12]) was 0.7 ± 0.59 s⁻¹.

B8: Sco2 (Streptomyces coelicolor A3(2)) (protein)
chain: MAELFYDADADLSIIQGRKVAVIGYGSQGHAHALSLRDSGVDVRVGLHEGSKSKAKAEEQGLRVVPVAEAAAEADVIMILVPDPIQAEVYEKDIKDNLKDGDALFFGHGLNIRYGFVKPPAGVDVCMVAPKGPGHLVRRQYEEGRGVPCLVAVEQDATGNAFALALSYAKGIGGTRAGVIRTTFTEETETDLFGEQAVLAGGVTALVKAGFETLTEAGYQPEIAYFECLHELKLIVDLMYEGGLEKMRWSISETAEWGDYVTGPRIITDVTKAEMRKVLAEIQDGTFAKNWMDEYHGGLKKYNEYKKQDSEHLLETTGKELRKLMSWVDEEA
notes: as for B1
B8 was tested, and the Km (purified protein [9]) was 10000 ± 110 µM, the kcat (purified protein [9]) was 0.3 ± 0.04 s⁻¹ and the Km (purified protein [10]) was 12000 ± 800 µM. It also gave a kcat (purified protein [10]) of 0.24 ± 0.01 s⁻¹.

B9: Sam (Streptomyces ambofaciens) (protein)
chain: MAELFYDADADLSIIQGRKVAVIGYGSQGHAHALSLRDSGVDVRVGLHEGSKSKAKAEEQGLRVVSPSEAAAEADVIMILVPDPIQAQVYEEHIKDNLKDGDALFFGHGLNIRFGFIKPPAGVDVCMVAPKGPGHLVRRQYEEGRGVPCIAAVEQDASGNAFALALSYAKGIGGTRAGVIKTTFTEETETDLFGEQAVLCGGTAALVKAGFETLTEAGYQPEIAYFECLHELKLIVDLMYEGGLEKMRWSISETAEWGDYVTGPRIITDATKAEMKKVLAEIQDGTFAKNWMDEYHGGLKKYNEYKQQDSEHLLETTGKQLRKLMSWVDEEA
notes: as for B1
With B9 the Km (purified protein [13]) was 4000 ± 300 µM, the kcat (purified protein [13]) was 0.8 ± 0.1 s⁻¹ and the Km (purified protein [14]) was 2000 ± 150 µM. It also gave a kcat (purified protein [14]) of 0.63 ± 0.5 s⁻¹.

B10: Sav (Streptomyces avermitilis MA-4680 = NBRC 14893) (protein)
chain: MAELFYDADADLSIIQGRKVAVIGYGSQGHAHALSLRDSGVDVRVGLHEGSKSKAKAEEQGLRVVTPSEAAAEADVIMILVPDPIQAQVYEESIKDNLKDGDALFFGHGLNIRFGFIKPPAGVDVCMVAPKGPGHLVRRQYEEGRGVPCIAAVEQDATGNGFALALSYAKGIGGTRAGVIKTTFTEETETDLFGEQAVLCGGTAALVKAGFETLTEAGYQPEIAYFECLHELKLIVDLMYEGGLEKMRWSISETAEWGDYVTGPRIITDATKAEMKKVLAEIQDGTFAQAWMDEYHGGLKKYNEYKTQDENHLLETTGKELRKLMSWVNDEEA
notes: as for B1
B10 gave a Km (purified protein [15]) of 2600 ± 300 µM, a kcat (purified protein [15]) of 0.4 ± 0.04 s⁻¹ and a Km (purified protein [16]) of 800 ± 90 µM. The kcat (purified protein [16]) was 0.24 ± 0.2 s⁻¹.
